Measurements from the supplement of paper PMC10567573.

B1: NP_009172.2 (parent)
chain: LPALFTDLYSQEITAEEAREALP
B2: DUSP5 (parent)
chain: YSEYPECCVDVKPISQEKIESERA

Variants of: B1
Assay: protein stability index of a GFP-peptide fusion (GPS, HEK-293T) (PSI 1-6); higher = more stable
Details: c terminus: native

Going from LPAIFTDLYSQEITAEEAREALP [L4I] to LPACFTDLYSQEITAEEAREALP [L4C], the protein stability index falls from 4.64 to 2.64.

Compared with LPARFTDLYSQEITAEEAREALP [L4R], LPANFTDLYSQEITAEEAREALP [L4N] is higher in protein stability index: 2.21 for the first, 2.76 for the second.

Compared with LPAKFTDLYSQEITAEEAREALP [L4K], LPADFTDLYSQEITAEEAREALP [L4D] is higher in protein stability index: 2.77 for the first, 4.87 for the second.

First: LPAAFTDLYSQEITAEEAREALP [L4A]
Second: LPAYFTDLYSQEITAEEAREALP [L4Y]
The protein stability index of the first is higher: 3.64 for the first, 3.47 for the second.

Compared with LPAGFTDLYSQEITAEEAREALP [L4G], LPATFTDLYSQEITAEEAREALP [L4T] is lower in protein stability index: 2.69 for the first, 2.27 for the second.

First: LPAPFTDLYSQEITAEEAREALP [L4P]
Second: LPAEFTDLYSQEITAEEAREALP [L4E]
The protein stability index of the first is lower: 4.94 for the first, 5.24 for the second.

Compared with LPAWFTDLYSQEITAEEAREALP [L4W], LPASFTDLYSQEITAEEAREALP [L4S] is lower in protein stability index: 3.98 for the first, 2.55 for the second.

Compared with LPAMFTDLYSQEITAEEAREALP [L4M], LPAQFTDLYSQEITAEEAREALP [L4Q] is higher in protein stability index: 3.19 for the first, 3.62 for the second.

Going from LPAFFTDLYSQEITAEEAREALP [L4F] to LPAVFTDLYSQEITAEEAREALP [L4V], the protein stability index rises from 2.99 to 4.59.

Going from LPAHFTDLYSQEITAEEAREALP [L4H] to LPSLFTDLYSQEITAEEAREALP [A3S], the protein stability index falls from 3.54 to 2.74.

First: LPHLFTDLYSQEITAEEAREALP [A3H]
Second: LPFLFTDLYSQEITAEEAREALP [A3F]
The protein stability index of the first is higher: 2.81 for the first, 2.76 for the second.

First: LPKLFTDLYSQEITAEEAREALP [A3K]
Second: LPILFTDLYSQEITAEEAREALP [A3I]
The protein stability index of the first is lower: 2.1 for the first, 2.43 for the second.

Compared with LPQLFTDLYSQEITAEEAREALP [A3Q], LPLLFTDLYSQEITAEEAREALP [A3L] is higher in protein stability index: 2.22 for the first, 2.56 for the second.

Compared with LPYLFTDLYSQEITAEEAREALP [A3Y], LPDLFTDLYSQEITAEEAREALP [A3D] is higher in protein stability index: 2.62 for the first, 4.1 for the second.

First: LPNLFTDLYSQEITAEEAREALP [A3N]
Second: LPCLFTDLYSQEITAEEAREALP [A3C]
The protein stability index of the first is higher: 2.96 for the first, 2.64 for the second.

Going from LPTLFTDLYSQEITAEEAREALP [A3T] to LPMLFTDLYSQEITAEEAREALP [A3M], the protein stability index falls from 2.56 to 2.47.

Going from LPELFTDLYSQEITAEEAREALP [A3E] to LPWLFTDLYSQEITAEEAREALP [A3W], the protein stability index falls from 3.66 to 2.42.

First: LPRLFTDLYSQEITAEEAREALP [A3R]
Second: LPPLFTDLYSQEITAEEAREALP [A3P]
The protein stability index of the first is lower: 2.43 for the first, 2.62 for the second.

Compared with LPVLFTDLYSQEITAEEAREALP [A3V], LPGLFTDLYSQEITAEEAREALP [A3G] is higher in protein stability index: 2.49 for the first, 2.68 for the second.

First: LPALATDLYSQEITAEEAREALP [F5A]
Second: LVALFTDLYSQEITAEEAREALP [P2V]
The protein stability index of the first is higher: 5.41 for the first, 2.46 for the second.

First: LTALFTDLYSQEITAEEAREALP [P2T]
Second: LFALFTDLYSQEITAEEAREALP [P2F]
The protein stability index of the first is lower: 2.51 for the first, 2.54 for the second.

First: LYALFTDLYSQEITAEEAREALP [P2Y]
Second: LKALFTDLYSQEITAEEAREALP [P2K]
The protein stability index of the first is higher: 2.85 for the first, 2.5 for the second.

First: LSALFTDLYSQEITAEEAREALP [P2S]
Second: LGALFTDLYSQEITAEEAREALP [P2G]
The protein stability index of the first is lower: 2.71 for the first, 3.03 for the second.

Compared with LNALFTDLYSQEITAEEAREALP [P2N], LMALFTDLYSQEITAEEAREALP [P2M] is higher in protein stability index: 2.59 for the first, 2.79 for the second.

First: LHALFTDLYSQEITAEEAREALP [P2H]
Second: LRALFTDLYSQEITAEEAREALP [P2R]
The protein stability index of the first is higher: 2.52 for the first, 2.28 for the second.

First: LWALFTDLYSQEITAEEAREALP [P2W]
Second: LQALFTDLYSQEITAEEAREALP [P2Q]
The protein stability index of the first is lower: 2.66 for the first, 2.69 for the second.

First: LAALFTDLYSQEITAEEAREALP [P2A]
Second: LDALFTDLYSQEITAEEAREALP [P2D]
The protein stability index of the first is lower: 2.69 for the first, 3.64 for the second.

Compared with LCALFTDLYSQEITAEEAREALP [P2C], LIALFTDLYSQEITAEEAREALP [P2I] is lower in protein stability index: 2.64 for the first, 2.37 for the second.

First: LEALFTDLYSQEITAEEAREALP [P2E]
Second: LLALFTDLYSQEITAEEAREALP [P2L]
The protein stability index of the first is higher: 3.51 for the first, 2.48 for the second.

Going from APALFTDLYSQEITAEEAREALP [L1A] to GPALFTDLYSQEITAEEAREALP [L1G], the protein stability index falls from 2.95 to 2.77.

Compared with RPALFTDLYSQEITAEEAREALP [L1R], WPALFTDLYSQEITAEEAREALP [L1W] is higher in protein stability index: 2.22 for the first, 2.68 for the second.

First: DPALFTDLYSQEITAEEAREALP [L1D]
Second: QPALFTDLYSQEITAEEAREALP [L1Q]
The protein stability index of the first is higher: 3.9 for the first, 2.5 for the second.

Compared with IPALFTDLYSQEITAEEAREALP [L1I], MPALFTDLYSQEITAEEAREALP [L1M] is higher in protein stability index: 2.63 for the first, 2.91 for the second.

First: EPALFTDLYSQEITAEEAREALP [L1E]
Second: PPALFTDLYSQEITAEEAREALP [L1P]
The protein stability index of the first is higher: 2.96 for the first, 2.49 for the second.

Going from TPALFTDLYSQEITAEEAREALP [L1T] to VPALFTDLYSQEITAEEAREALP [L1V], the protein stability index rises from 2.4 to 2.59.

Compared with KPALFTDLYSQEITAEEAREALP [L1K], YPALFTDLYSQEITAEEAREALP [L1Y] is higher in protein stability index: 1.72 for the first, 2.5 for the second.

Compared with CPALFTDLYSQEITAEEAREALP [L1C], NPALFTDLYSQEITAEEAREALP [L1N] is higher in protein stability index: 2.5 for the first, 2.86 for the second.

Going from SPALFTDLYSQEITAEEAREALP [L1S] to FPALFTDLYSQEITAEEAREALP [L1F], the protein stability index rises from 2.32 to 2.59.

In the case of HPALFTDLYSQEITAEEAREALP [L1H], the protein stability index is reported as 2.6.

Variants of: B2
Assay: as above
Details: c terminus: a fixed tail appended

Going from YSEYPECCVDVKPISQEKIESERV [A24V] to YSEYPECCVDVKPISQEKIESERG [A24G], the protein stability index falls from 3.89 to 3.82.

First: YSEYPECCVDVKPISQEKIESERH [A24H]
Second: YSEYPECCVDVKPISQEKIESERI [A24I]
The protein stability index of the first is lower: 3.73 for the first, 4.16 for the second.

Going from YSEYPECCVDVKPISQEKIESERE [A24E] to YSEYPECCVDVKPISQEKIESERD [A24D], the protein stability index falls from 4.9 to 4.45.

First: YSEYPECCVDVKPISQEKIESERY [A24Y]
Second: YSEYPECCVDVKPISQEKIESERN [A24N]
The protein stability index of the first is lower: 3 for the first, 4.1 for the second.

Compared with YSEYPECCVDVKPISQEKIESERW [A24W], YSEYPECCVDVKPISQEKIESERQ [A24Q] is higher in protein stability index: 3.44 for the first, 4.18 for the second.

Going from YSEYPECCVDVKPISQEKIESERK [A24K] to YSEYPECCVDVKPISQEKIESERF [A24F], the protein stability index falls from 3.82 to 2.43.

Going from YSEYPECCVDVKPISQEKIESERP [A24P] to YSEYPECCVDVKPISQEKIESERL [A24L], the protein stability index rises from 3.88 to 4.26.

First: YSEYPECCVDVKPISQEKIESETA [R23T]
Second: YSEYPECCVDVKPISQEKIESEWA [R23W]
The protein stability index of the first is higher: 4.44 for the first, 3.41 for the second.

Going from YSEYPECCVDVKPISQEKIESEQA [R23Q] to YSEYPECCVDVKPISQEKIESESA [R23S], the protein stability index rises from 4.34 to 4.38.

Compared with YSEYPECCVDVKPISQEKIESEVA [R23V], YSEYPECCVDVKPISQEKIESEYA [R23Y] is lower in protein stability index: 3.88 for the first, 3.71 for the second.
